In general, stoichiometry N refers to the number of molecules, sites or subunits per partner or assembly. In general, Kd refers to the concentration at which binding is half-saturated.

The text below walks through data of article PMC2680711 (Nature structural & molecular biology, 2008).

Series [1] addresses T1, Rtt109 (recombinant, purified) (yeast, UniProt Q07794 1-436).
T1 sequence (looked up): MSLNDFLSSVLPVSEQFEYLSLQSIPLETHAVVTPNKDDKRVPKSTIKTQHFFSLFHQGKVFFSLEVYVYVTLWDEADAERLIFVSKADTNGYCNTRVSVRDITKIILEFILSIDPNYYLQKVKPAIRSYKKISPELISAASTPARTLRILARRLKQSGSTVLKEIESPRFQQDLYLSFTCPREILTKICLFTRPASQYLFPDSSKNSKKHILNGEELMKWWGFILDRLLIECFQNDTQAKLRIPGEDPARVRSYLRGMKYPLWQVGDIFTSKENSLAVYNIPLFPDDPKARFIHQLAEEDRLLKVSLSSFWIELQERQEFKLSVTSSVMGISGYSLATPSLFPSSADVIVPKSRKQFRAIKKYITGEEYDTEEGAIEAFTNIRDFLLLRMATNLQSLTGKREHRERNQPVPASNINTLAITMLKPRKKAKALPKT
As to the kind of experiment: AUC.

The series “AUC” deals with the molecule itself. As to the kind of experiment: AUC.
Series [2] addresses recombinant yeast (H3-H4)2 tetramer (yeast, UniProt P61830 1-136; P02309 1-103). As to the kind of experiment: other fluorescence titration.

B1: Vps75_(1−223) (Vps75 lacking the C-terminal acidic domain) (domain or fragment, S. cerevisiae, UniProt P53853 1-223, looked up)
chain: MMSDQENENEHAKAFLGLAKCEEEVDAIEREVELYRLNKMKPVYEKRDAYIDEIAEFWKIVLSQHVSFANYIRASDFKYIDTIDKIKVEWLALESEMYDTRDFSITFHFHGIEGDFKEQQVTKVFQIKKGKDDQEDGILTSEPVPIEWPQSYDSINPDLIKDKRSPEGKKKYRQGMKTIFGWFRWTGLKPGKEFPHGDSLASLFSEEIYPFCVKYYAEAQRDL
Take B1: in series [1], the binding result is on record as “binds”. Further, in the series “AUC”, the “stoichiometry N” value was 2.

B2: Alexa-546-labeled Vps75 (natural protein, S. cerevisiae)
chain: MMSDQENENEHAKAFLGLAKCEEEVDAIEREVELYRLNKMKPVYEKRDAYIDEIAEFWKIVLSQHVSFANYIRASDFKYIDTIDKIKVEWLALESEMYDTRDFSITFHFHGIEGDFKEQQVTKVFQIKKGKDDQEDGILTSEPVPIEWPQSYDSINPDLIKDKRSPEGKKKYRQGMKTIFGWFRWTGLKPGKEFPHGDSLASLFSEEIYPFCVKYYAEAQRDLEDEEGESGLSADGDSEDDDGSLGEVDLPLSDEEPSSKKRKV
modifications: Alexa-546 label, position not stated
B2: in series [2], the Kd was 27 nM.
